The text below walks through data of the supplement of paper PMC10567573.

± gives the standard deviation.

This data set can be described thus: protein stability index of a GFP-peptide fusion (GPS, HEK-293T) (PSI 1-6); higher = more stable. The note with it: c terminus: a fixed tail appended.
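Also: 24-mer peptide tiles fused after GFP, lentivirally expressed, FACS-sorted into six equal bins by GFP/DsRed ratio, decoded by Illumina sequencing, PSI is the read-weighted mean bin number.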

On to QAEKRAAEKVSEARKRKNRRLKQA [ATP6V1G1], for which the protein stability index reads like this: (treatment: DMSO) 5.47 ± 0.51; (treatment: MLN4924 1 uM, 8 h) 5.33 ± 0.41.

For QAELQELEERLQLQFEAEMARLQE [MTUS2], the protein stability index (treatment: DMSO) came to 4.78 ± 0.38 and the protein stability index (treatment: MLN4924 1 uM, 8 h) was 4.72 ± 0.29.

Turning to QAWVQKHHPENGEETVTMLEDVER [ZNF396], the protein stability index reads like this: (treatment: DMSO) 5.1 ± 0.32; (treatment: MLN4924 1 uM, 8 h) 5.39 ± 0.17.

Sequence QCDKRFRWSSDLNKHLTTHQGIKP [ZNF75A] came in with a protein stability index (treatment: DMSO) of 3.02 ± 0.12 and a protein stability index (treatment: MLN4924 1 uM, 8 h) of 2.97 ± 0.24.

For QCPMRVQKEVAGFVLNRLQYAIIS [CRYL1], the protein stability index runs as follows: (treatment: DMSO) 3 ± 0.78; (treatment: MLN4924 1 uM, 8 h) 2.38 ± 1.

On to QDAVDQVKVIMDALDERAKVLHED [TRIM29], for which the protein stability index was determined as 4.93 ± 0.1 (treatment: DMSO) and 4.93 ± 0.34 (treatment: MLN4924 1 uM, 8 h).

Regarding QDTLELESPSLTSTPVCSQKVVVT [MYBL2], the protein stability index came to 4.59 ± 0.18 (treatment: DMSO) and 4.63 ± 0.11 (treatment: MLN4924 1 uM, 8 h).

On to QEILELIDREVDLMMRGVKHHNLE [IQUB], for which the protein stability index turned out to be 2.67 ± 0.46 (treatment: DMSO) and 2.64 ± 0.5 (treatment: MLN4924 1 uM, 8 h).

For QELQARLQTVTREKEELLQLSIER [CCDC89], the protein stability index (treatment: DMSO) came to 4.38 ± 0.35 and the protein stability index (treatment: MLN4924 1 uM, 8 h) came to 4.32 ± 0.1.

QELVDYVNARQKQGIYEEYEDIRR [PTPN9]: the protein stability index runs as follows: (treatment: DMSO) 3.88 ± 0.24; (treatment: MLN4924 1 uM, 8 h) 3.86 ± 0.2.

Regarding QEQIEAVLLNSLQQYRQDQRDGSK [CCND2], the protein stability index runs as follows: (treatment: DMSO) 4.51 ± 0.086; (treatment: MLN4924 1 uM, 8 h) 4.46 ± 0.13.

Consider QESSFRSRKIAVEDENDLEELNNG [MIA2], for which the protein stability index by setting is: (treatment: DMSO) 5.32 ± 0.92; (treatment: MLN4924 1 uM, 8 h) 5.48 ± 0.15.

Consider QFILERGEYPRWDAWSGSNAYHIE [CRYBA1], for which the protein stability index is, setting by setting: (treatment: DMSO) 2.31 ± 0.17; (treatment: MLN4924 1 uM, 8 h) 2.19 ± 0.18.

Turning to QGAKERAHQQKKHSGFEDELSEVL [CHGA], the protein stability index is 5.23 ± 0.25 (treatment: DMSO) and 5.27 ± 0.23 (treatment: MLN4924 1 uM, 8 h).

In the case of QGEPLGYRQDDPSYRSFHSGGYGQ [CTNNB1], the protein stability index reads like this: (treatment: DMSO) 3.76 ± 0.48; (treatment: MLN4924 1 uM, 8 h) 3.96 ± 0.24.

As for QGLAEKSPLQTIGEEQTQNPYTEL [WDR41], the protein stability index is 5.3 ± 0.14 (treatment: DMSO) and 5.29 ± 0.13 (treatment: MLN4924 1 uM, 8 h).

Consider QGNKKEHVIHIIDFGLAKEYIDPE [CSNK1G1], for which the protein stability index is, setting by setting: (treatment: DMSO) 2.5 ± 0.16; (treatment: MLN4924 1 uM, 8 h) 2.81 ± 0.24.

In the case of QGNSVDRMAAPRAEALFDFTGNSK [NCF4], the protein stability index is 4.7 ± 0.15 (treatment: DMSO) and 4.79 ± 0.17 (treatment: MLN4924 1 uM, 8 h).

Turning to QGWVREHCPESGEEAVILLEDLER [ZSCAN9], the protein stability index reads like this: (treatment: DMSO) 4.36 ± 0.12; (treatment: MLN4924 1 uM, 8 h) 4.7 ± 0.28.

Take QIKALNNKFASFIDKVRFLEQQNQ [KRT71]: the protein stability index runs as follows: (treatment: DMSO) 2.38 ± 0.1; (treatment: MLN4924 1 uM, 8 h) 2.59 ± 0.4.

In turn, QISIYGVKILEPKTKEVQHNCQLH [GULP1] showed a protein stability index (treatment: DMSO) of 2.58 ± 0.37 and a protein stability index (treatment: MLN4924 1 uM, 8 h) of 2.85 ± 0.39.

For QITVKALPKPPGTPVVTESTATSI [PTPRD], the protein stability index is, setting by setting: (treatment: DMSO) 4.62 ± 0.29; (treatment: MLN4924 1 uM, 8 h) 4.61 ± 0.091.

With QKEVAGFVLNRLQYAIISEAWRLV [CRYL1], the protein stability index by setting is: (treatment: DMSO) 3.43 ± 0.53; (treatment: MLN4924 1 uM, 8 h) 3.37 ± 0.27.

QKRYQDWFQRQYLSTPDSQSLRCD [INTS3] yielded a protein stability index (treatment: DMSO) of 2.96 ± 0.1 and a protein stability index (treatment: MLN4924 1 uM, 8 h) of 3.13 ± 0.17.

In turn, QLLLGRLFRWPDLQHAVELKPLCG [SMAD6] showed a protein stability index (treatment: DMSO) of 2.12 ± 0.19 and a protein stability index (treatment: MLN4924 1 uM, 8 h) of 2.36 ± 0.17.

As for QLQVTEREEVRGRELTGLKALYET [LMNB1], the protein stability index (treatment: DMSO) is 3.68 ± 0.18 and the protein stability index (treatment: MLN4924 1 uM, 8 h) was found to be 3.98 ± 0.38.

Turning to QLSHIKAKIRAKIPGTGALASAAA [RTN2], the protein stability index was 3.07 ± 0.21 (treatment: DMSO) and 3.09 ± 0.41 (treatment: MLN4924 1 uM, 8 h).

With QLVLRTKEAFDTIQEQKVVLEENG [SASS6], the protein stability index is, setting by setting: (treatment: DMSO) 4.45 ± 0.23; (treatment: MLN4924 1 uM, 8 h) 4.64 ± 0.46.

On to QLYGDAPGEVVPSGESGLRRRGSD [TMEM40], for which the protein stability index is, setting by setting: (treatment: DMSO) 5.13 ± 0.18; (treatment: MLN4924 1 uM, 8 h) 5.19 ± 0.25.

Turning to QMAKKAEAFQLYQEAAQLDMLLEK [FLOT1], the protein stability index is, setting by setting: (treatment: DMSO) 2.73 ± 0.36; (treatment: MLN4924 1 uM, 8 h) 3.21 ± 0.64.

As to QNLANEEVRKLTQRLEEMTQRMEA [MATN2], the protein stability index reads like this: (treatment: DMSO) 4.67 ± 0.14; (treatment: MLN4924 1 uM, 8 h) 4.87 ± 0.39.

As to QNLSRSWHDVQVSSAYVKTSEKLG [TPD52L2], the protein stability index was found to be 3.98 ± 0.11 (treatment: DMSO) and 3.82 ± 0.21 (treatment: MLN4924 1 uM, 8 h).

Sequence QNNQAKELERLIDKAMKKDGLVGM [FIS1] had a protein stability index (treatment: DMSO) of 4.18 ± 0.19 and a protein stability index (treatment: MLN4924 1 uM, 8 h) of 4.3 ± 0.12.

For the sequence QNQVDELERKFRCQQEQLFQTRQE [LRRC45], the protein stability index runs as follows: (treatment: DMSO) 5.04 ± 0.22; (treatment: MLN4924 1 uM, 8 h) 5.02 ± 0.12.

Regarding QPGAGFGMPPAGTGMPMMPQQPVM [SNAP91], the protein stability index reads like this: (treatment: DMSO) 3.71 ± 0.26; (treatment: MLN4924 1 uM, 8 h) 3.84 ± 0.3.

As to QPLRTPRDEAIYECVASNNVGEIS [PTPRD], the protein stability index was determined as 4.88 ± 0.23 (treatment: DMSO) and 5.13 ± 0.12 (treatment: MLN4924 1 uM, 8 h).
